Measurements from publication PMC11410778.

Tests used:
[1] = target: pOmpT S267D (Escherichia coli (avian pathogenic strain E058))
[2] = target: pOmpT T276S (Escherichia coli (avian pathogenic strain E058))
[3] = target: cOmpT D267S (Escherichia coli (avian pathogenic strain E058)) (UniProt P09169)
[4] = target: cOmpT S276T (Escherichia coli (avian pathogenic strain E058)) (UniProt P09169)
[5] = target: plasmid-encoded OmpT (pOmpT or ArlC) of avian pathogenic Escherichia coli E058 (Escherichia coli (avian pathogenic strain E058))
[6] = target: pOmpT S267D/T276S (Escherichia coli (avian pathogenic strain E058))
[7] = target: chromosome-encoded OmpT (cOmpT) of avian pathogenic Escherichia coli E058 (Escherichia coli (avian pathogenic strain E058)) (UniProt P09169)
[8] = target: cOmpT D267S/S276T (Escherichia coli (avian pathogenic strain E058)) (UniProt P09169)

“synthetic FRET substrate 2Abz-SLGRKIQI-K(Dnp)-NH2 (peptide)” gave a Km of cleavage of the FRET substrate by whole E. coli BL21 expressing the protease (0–240 μM substrate, Michaelis–Menten fit) [1] of 28.1 nM, a Km of cleavage of the FRET substrate by whole E. coli BL21 expressing the protease (0–240 μM substrate, Michaelis–Menten fit) [2] of 15.7 nM and a Km of cleavage of the FRET substrate by whole E. coli BL21 expressing the protease (0–240 μM substrate, Michaelis–Menten fit) [3] of 16.7 nM. It also gave a Km of cleavage of the FRET substrate by whole E. coli BL21 expressing the protease (0–240 μM substrate, Michaelis–Menten fit) [4] of 47.5 nM, a Km of cleavage of the FRET substrate by whole E. coli BL21 expressing the protease (0–240 μM substrate, Michaelis–Menten fit) [5] of 66.7 nM and a Km of cleavage of the FRET substrate by whole E. coli BL21 expressing the protease (0–240 μM substrate, Michaelis–Menten fit) [6] of 21.5 nM. The Km of cleavage of the FRET substrate by whole E. coli BL21 expressing the protease (0–240 μM substrate, Michaelis–Menten fit) [7] was 10.7 nM and the Km of cleavage of the FRET substrate by whole E. coli BL21 expressing the protease (0–240 μM substrate, Michaelis–Menten fit) [8] was 40.8 nM.
